Laboratory results from paper PMC12691637.

Molecular target: cytosolic fragment of the McpN chemoreceptor (McpN_CF) (Pseudomonas aeruginosa PAO1)
Assay: ITC; VP microcalorimeter, 25°C; 3 mM Tris, 3 mM PIPES, 3 mM MES, 5 mM 2-mercaptoethanol, pH 8.0; 10 µM cytosolic fragment in the sample cell titrated with 12.8 µL aliquots of 113 µM CheV or CheV D238E; 'Two Binding Sites' model

## CheV D238E (phosphorylation mimic) of Pseudomonas aeruginosa PAO1 (natural protein)
  KD of the first event (high affinity, endothermic): 8 nM
  KD of the second event (lower affinity, exothermic): 3000 nM
  N of the first event: 0.5
